According to paper PMC9982066, “Inhibition of Ehrlichia chaffeensis infection by cell-permeable macrocyclic peptides that bind type IV secretion effector Etf-1” (PNAS Nexus, 2023):
Starred links: 1 amine or outer side, 2 acyl side, 3 side chain; linkers in the order of their positions; H or OH if unused. Positions of bridges follow the written chain, without caps; N, C: chain ends. Non-standard residues stand in square brackets, D forms with d. No end group written: not given here. Trimesoyl = O=C(c1cc(C(=O)[*:2])cc(C(=O)[*:3])c1)[*:1]; Phe(4-Cl) = N[C@@H](Cc1ccc(Cl)cc1)C(=O)O; Phe(4-F) = N[C@@H](Cc1ccc(F)cc1)C(=O)O; 2Nal = N[C@@H](Cc1ccc2ccccc2c1)C(=O)O; d2Nal = N[C@H](Cc1ccc2ccccc2c1)C(=O)O; βAsp = O=C(O)[C@H](CC(=O)[*:2])N[*:1]; Nle = CCCC[C@H](N)C(=O)O; Orn = NCCC[C@H](N)C(=O)O; Dap = NC[C@H](N)C(=O)O; TMA = not defined here

B1: biotinylated full-length Etf-1 protein (natural protein, E. chaffeensis, UniProt Q2GG12 1-380, looked up)
chain: MLTFLKKGANVVIKAAITPTTSKLPHQESVGKYLGGMLKSIIPGQKDPAEKHFDLRMHNRTHKLGVELPARTRIDGHEQEVALKVPSYKLPYQTLQKFAAWQEQDKEGEVEETKKDTLTSLINPVSATQEFIRSNTADKYFEKLKALDQQLKEIGGKVTVNSTPGRYKQGLTIELDVSNKSRIAIEKDVRLVLEGLGINDEELVKTFTKRLYKSSTDKKMSSADIHTEKTSSNTDSKDNSNNQDHDIVSPAKRHGSDTVSAVQRQGDDILSSSQEQSSKTGSPTNSTGISNSDFSLTNPQNMPYSRTPMQSSQMLQQLQNQILMQQKPERIFSQAMPTVMQQEIDEIAEDLCQGLNEGPTQGNSNNIGKHFSNPGKVHAR
modifications: biotin (two equivalents of NHS-PEG4-D-Biotin, pH 8.0)
notes: source: E. coli BL21(DE3), purified (HisPur Cobalt resin, size exclusion chromatography), then biotinylated
B2: FAM-labeled macrocyclic peptide B22 (peptide)
chain: VXNHAXFXRRRRX
modifications: not fully specified; carboxyfluorescein (FAM) at the C-terminus through a β-Ala-β-Ala-Lys linker
B3: FAM-labeled macrocyclic peptide B13 (peptide)
chain: EHFEHAXFXRRRX
modifications: not fully specified; carboxyfluorescein (FAM) at the C-terminus through a β-Ala-β-Ala-Lys linker
B4: FAM-labeled macrocyclic peptide B17 (peptide)
chain: XFGDYXFXRRRRX
modifications: not fully specified; carboxyfluorescein (FAM) at the C-terminus through a β-Ala-β-Ala-Lys linker
B5: FAM-labeled macrocyclic peptide B7-133-5 (peptide)
chain: YDHDHLXFXRRRRX
modifications: not fully specified; same peptide as Dm35 (Table S3); bicyclic via TMA to Dap7 and Dap14; D2=isoAsp, D-Leu6, X7/X14=Dap, F8=4-chloro-Phe, X9=D-2-Nal, D-Arg10, D-Arg12; linker Lys(FAM) left out

The binders below were run against T1, Ehrlichia translocated factor-1 (Etf-1) (Ehrlichia chaffeensis, UniProt Q2GG12 1-380) (assay: fluorescence polarisation). Details: both partners purified.

Q: For QHS[dV][Dap][dF][2Nal]R[dR]R[Dap] (linker 5-11 via TMA; not fully specified (C-terminus); reading uncertain) [macrocyclic peptide C6, FAM-labelled], which Kd is on record?
A: > 25 µM

Q: Which Kd does the source give for IHA[Orn][dK][Dap]F[2Nal]RRR[Dap] (linker 6-12 via TMA; not fully specified (C-terminus); reading uncertain) [macrocyclic peptide C19, FAM-labelled] here?
A: > 25 µM

Q: How did the Kd turn out when IDA[Nle]H[Dap]F[2Nal]RRR[Dap] (linker 6-12 via TMA; not fully specified (C-terminus); reading uncertain) [macrocyclic peptide C9, FAM-labelled] was run?
A: > 25 µM

The binders below were run against T2, recombinant full-length BECN1 protein (Beclin 1) (human, UniProt Q14457 1-450) (assay: SPR; OpenSPR; biotinylated rEtf-1 (1 μM) immobilised on a streptavidin sensor chip, BECN1 dilutions as analyte; 20 mM Tris pH 8.0, 100 mM NaCl, 0.05% Tween 20; 30 µL/min). Details: both partners purified.
T2 construct: also called ATG6; source: size exclusion chromatography
T2 sequence (Q14457 whole entry): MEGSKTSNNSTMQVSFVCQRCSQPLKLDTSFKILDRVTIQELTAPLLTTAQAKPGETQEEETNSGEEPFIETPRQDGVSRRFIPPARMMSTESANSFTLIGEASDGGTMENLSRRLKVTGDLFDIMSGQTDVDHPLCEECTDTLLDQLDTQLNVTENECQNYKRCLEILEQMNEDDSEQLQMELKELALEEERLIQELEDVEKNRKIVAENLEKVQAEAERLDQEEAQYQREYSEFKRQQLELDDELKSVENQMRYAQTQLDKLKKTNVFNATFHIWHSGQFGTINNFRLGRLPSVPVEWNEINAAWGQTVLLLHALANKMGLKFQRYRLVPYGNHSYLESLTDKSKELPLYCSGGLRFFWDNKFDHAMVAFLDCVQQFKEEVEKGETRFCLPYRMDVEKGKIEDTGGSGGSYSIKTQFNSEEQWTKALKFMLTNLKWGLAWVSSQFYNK

Q: B1 was tested. Which Kd did it give?
A: 0.06 ± 0.001 µM

What follows are binders tested against Ehrlichia translocated factor-1 (Etf-1), recombinant 6×His-Etf-1 fusion protein (E. chaffeensis, UniProt Q2GG12 1-380) (assay: fluorescence polarisation). Details: both partners purified.

Q: B2 was tested. Which Kd did it give?
A: > 25 µM

Q: Which Kd does the source give for B3 here?
A: > 25 µM

Q: Which Kd does the source give for B4 here?
A: > 25 µM

Q: With B5 as the binder, how does the Kd read?
A: > 10 µM

Biological target: T1, Ehrlichia translocated factor-1 (Etf-1)
Test: fluorescence polarisation
Details: both partners purified
Remark: another data set of the same source

Q: For Y[dA]D[dY][dA][dL][Dap][Phe(4-Cl)][d2Nal][dR]R[dR]R[Dap]-{Lys(FAM)} (linker N-7-14 via Trimesoyl; not fully specified (N-terminus)) [macrocyclic peptide B7-133-2, FAM-labelled], which Kd is on record?
A: 8.2 ± 1.2 µM

Q: For YH[d2Nal]QS[Phe(4-F)][dL][Dap][Phe(4-Cl)][d2Nal][dR]R[dR]R[Dap]-{Lys(FAM)} (linker N-8-15 via Trimesoyl; not fully specified (N-terminus)) [macrocyclic peptide B7-131-2, FAM-labelled], which Kd is on record?
A: 8.8 ± 0.9 µM

Q: Which Kd does the source give for Y[βAsp]HDH[dL][Dap][Phe(4-Cl)][d2Nal][dR]R[dR]R[Dap]-{Lys(FAM)} (linker N-7-14 via Trimesoyl; not fully specified (N-terminus)) [macrocyclic peptide B7-133-5, FAM-labelled] here?
A: > 10 µM

Q: Which Kd does the source give for Y[Nle][dE]QG[dL][Dap][Phe(4-Cl)][d2Nal][dR]R[dR]R[Dap]-{Lys(FAM)} (linker N-7-14 via Trimesoyl; not fully specified (N-terminus)) [macrocyclic peptide B7-133-4, FAM-labelled] here?
A: 6.5 ± 0.1 µM
